Assay results: article PMC9652377

Target: β-arrestin-2-YFP, P32121
Assay: BRET (CXCR4-RLuc / βarr2-YFP) in HEK293T cells
Settings: chain shown with the change; CXCL12 1e-6 M (highest concentration of the curve), 15 min; coel-h 10 min; parent: est. 0.11; read off a plot

β-arrestin-2-YFP, P32121, sequence (P32121 whole entry): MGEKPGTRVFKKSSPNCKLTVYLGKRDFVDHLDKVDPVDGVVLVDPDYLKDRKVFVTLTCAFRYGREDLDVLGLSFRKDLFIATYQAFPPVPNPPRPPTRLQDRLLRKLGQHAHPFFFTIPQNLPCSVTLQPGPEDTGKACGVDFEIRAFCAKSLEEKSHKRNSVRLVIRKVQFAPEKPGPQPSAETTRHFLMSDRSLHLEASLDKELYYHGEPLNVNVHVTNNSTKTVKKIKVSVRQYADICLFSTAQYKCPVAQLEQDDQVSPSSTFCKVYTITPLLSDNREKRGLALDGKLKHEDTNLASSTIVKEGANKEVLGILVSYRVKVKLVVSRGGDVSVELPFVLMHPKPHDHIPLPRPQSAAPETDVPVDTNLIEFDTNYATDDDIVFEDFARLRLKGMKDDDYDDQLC

response: 0.09 ΔBRET
B1: chemokine receptor CXCR4 WT, CXCR4-RLuc, P61073 V198F + V197M/V198W (protein)
chain: MEGISIYTSDNYTEEMGSGDYDSMKEPCFREENANFNKIFLPTIYSIIFLTGIVGNGLVILVMGYQKKLRSMTDKYRLHLSVADLLFVITLPFWAVDAVANWYFGNFLCKAVHVIYTVNLYSSVLILAFISLDRYLAIVHATNSQRPRKLLAEKVVYVGVWIPALLLTIPDFIFANVSEADDRYICDRFYPNDLWVMWFQFQHIMVGLILPGIVILSCYCIIISKLSHSKGHQKRKALKTTVILILAFFACWLPYYIGISIDSFILLEIIKQGCEFENTVHKWISITEALAFFHCCLNPILYAFLGAKFKTSAQHALTSVSRGSSLKILSKGKRGGHSSVSTESESSSFHSS
